The values below come from article PMC9398120 (Molecular Cancer Therapeutics, 2021).

For experiment [1], the target named is T1, recombinant CD73 (Homo sapiens, UniProt P21589).
For experiment [2], the target named is T1, recombinant CD73. The experiment is described as follows: AUC.

T1 sequence (P21589 27-549): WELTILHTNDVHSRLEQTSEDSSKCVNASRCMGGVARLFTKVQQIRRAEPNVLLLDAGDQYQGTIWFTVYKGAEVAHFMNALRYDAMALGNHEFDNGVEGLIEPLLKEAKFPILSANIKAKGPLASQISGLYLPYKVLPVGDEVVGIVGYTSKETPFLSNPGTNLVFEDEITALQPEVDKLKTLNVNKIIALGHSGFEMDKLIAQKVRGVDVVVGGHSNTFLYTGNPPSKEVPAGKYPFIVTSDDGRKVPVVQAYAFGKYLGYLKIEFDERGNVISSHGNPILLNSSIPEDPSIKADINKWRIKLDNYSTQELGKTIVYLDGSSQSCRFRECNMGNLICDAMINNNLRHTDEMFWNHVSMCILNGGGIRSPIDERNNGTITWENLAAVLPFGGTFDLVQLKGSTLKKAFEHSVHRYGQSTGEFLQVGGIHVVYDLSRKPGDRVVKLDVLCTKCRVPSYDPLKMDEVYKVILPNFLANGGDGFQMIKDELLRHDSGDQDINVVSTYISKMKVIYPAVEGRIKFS

B1: mAb19 (antibody, V domains shown)
VH: QVQLVQSGAEVKKPGDSVKVSCKASGYTFTTYWMHWVRQAPGQGLEWMGAIYPGLSDTTYNQKFKGKVTMTRDTSTSTVYMKLSSLRSEDTAVYYCARLLDYAMDYWGQGTLVTVSS
VL: DIQMTQSPSSLSASVGDRVTITCRASQDIRSYLNWHQQKPGKAPKLLIWYTSRLHSGVPSRFSGSGSGTDYTLTISSLQPEDFATYFCQQGETLPWTFGQGTKLEIK
The Kd is the free concentration of one partner at which half of the binding sites on the other are occupied at equilibrium, for simple one-to-one binding. The term stoichiometry N denotes the number of molecules, sites or subunits per partner or assembly. Turning to B1, the Kd in experiment [1] is 0.074 nM. For the same molecule, the “stoichiometry N” value in experiment [2] is 1 mAb19 per CD73 (printed as 2:2).
